# Values of other authors, collected in publication PMC10687467.
# Key:
# [1] = molecular target: LDL receptor (Homo sapiens) (UniProt P01130)
# LRP-2 (Homo sapiens) = LRP-2 (Homo sapiens) (UniProt P98164)
# [2] = molecular target: VLDL receptor (Homo sapiens) (UniProt P98155)
# ApoER2 (Homo sapiens) = ApoER2 (Homo sapiens) (UniProt Q14114)
# ApoER2 (Homo sapiens), sequence (Q14114 33-826): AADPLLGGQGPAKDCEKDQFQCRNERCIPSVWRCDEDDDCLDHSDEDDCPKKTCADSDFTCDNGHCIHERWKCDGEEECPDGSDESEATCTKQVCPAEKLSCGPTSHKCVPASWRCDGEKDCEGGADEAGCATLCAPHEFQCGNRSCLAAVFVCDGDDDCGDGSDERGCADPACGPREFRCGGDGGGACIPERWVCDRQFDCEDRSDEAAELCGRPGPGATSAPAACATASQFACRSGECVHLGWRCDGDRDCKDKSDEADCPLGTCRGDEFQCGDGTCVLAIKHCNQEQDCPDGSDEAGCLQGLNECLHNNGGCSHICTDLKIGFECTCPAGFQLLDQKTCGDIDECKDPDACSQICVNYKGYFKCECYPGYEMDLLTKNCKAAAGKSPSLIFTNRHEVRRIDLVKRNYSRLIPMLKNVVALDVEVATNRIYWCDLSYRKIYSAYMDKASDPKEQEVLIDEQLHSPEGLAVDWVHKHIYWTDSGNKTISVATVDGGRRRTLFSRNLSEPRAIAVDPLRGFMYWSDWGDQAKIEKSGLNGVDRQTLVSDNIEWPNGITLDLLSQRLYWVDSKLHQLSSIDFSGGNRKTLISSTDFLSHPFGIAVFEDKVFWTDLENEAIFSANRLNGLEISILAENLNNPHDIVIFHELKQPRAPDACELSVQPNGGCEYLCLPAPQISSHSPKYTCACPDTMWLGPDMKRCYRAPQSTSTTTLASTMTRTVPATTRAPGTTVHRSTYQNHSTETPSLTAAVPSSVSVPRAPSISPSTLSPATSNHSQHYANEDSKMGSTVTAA
# LRPAP1, sequence (P30533 35-357): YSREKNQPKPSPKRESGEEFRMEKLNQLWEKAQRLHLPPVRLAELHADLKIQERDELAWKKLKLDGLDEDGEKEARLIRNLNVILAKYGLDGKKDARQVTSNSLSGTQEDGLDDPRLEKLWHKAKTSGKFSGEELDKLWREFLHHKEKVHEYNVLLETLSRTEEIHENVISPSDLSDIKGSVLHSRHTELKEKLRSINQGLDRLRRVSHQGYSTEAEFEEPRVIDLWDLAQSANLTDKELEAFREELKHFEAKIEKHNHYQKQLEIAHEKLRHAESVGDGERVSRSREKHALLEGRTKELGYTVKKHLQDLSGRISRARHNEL
# LDL receptor (Homo sapiens), sequence (P01130 22-788): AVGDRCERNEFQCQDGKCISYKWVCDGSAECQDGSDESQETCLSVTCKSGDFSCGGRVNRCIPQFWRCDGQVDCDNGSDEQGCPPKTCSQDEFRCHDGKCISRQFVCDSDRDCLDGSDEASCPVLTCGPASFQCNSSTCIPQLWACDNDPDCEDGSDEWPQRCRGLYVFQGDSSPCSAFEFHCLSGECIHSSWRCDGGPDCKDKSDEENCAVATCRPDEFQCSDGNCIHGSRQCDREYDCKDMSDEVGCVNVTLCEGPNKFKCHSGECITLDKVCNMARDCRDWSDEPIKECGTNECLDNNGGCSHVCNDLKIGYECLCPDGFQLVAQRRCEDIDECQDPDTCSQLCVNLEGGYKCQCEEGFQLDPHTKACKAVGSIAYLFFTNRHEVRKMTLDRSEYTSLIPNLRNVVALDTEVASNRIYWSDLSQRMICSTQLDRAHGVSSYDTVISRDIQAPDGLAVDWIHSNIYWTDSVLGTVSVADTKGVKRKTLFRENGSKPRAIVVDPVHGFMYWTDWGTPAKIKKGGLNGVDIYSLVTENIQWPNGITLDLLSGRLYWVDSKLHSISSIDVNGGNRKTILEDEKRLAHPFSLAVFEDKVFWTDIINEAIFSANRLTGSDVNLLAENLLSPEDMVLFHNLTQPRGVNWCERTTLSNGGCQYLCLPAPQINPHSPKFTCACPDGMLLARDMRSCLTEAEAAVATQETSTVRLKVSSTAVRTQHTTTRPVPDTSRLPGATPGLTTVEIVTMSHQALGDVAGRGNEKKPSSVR
substance,measurement,setting,value
LRPAP1 (from UniProt P30533),Kd,[1],250 nM
same,Kd,LRP-2 (Homo sapiens),8 nM
same,Kd,[2],0.7 nM
same,Kd,ApoER2 (Homo sapiens),5 nM
